Reference: patent publication US20060281090A1 (University of Washington, published 2006)

B1: purified recombinant Ad35 fiber knob domain (other)
chain: SINTLWTGINPPPNCQIVENTNTNDGKLTLVLVKNGGLVNGYVSLVGVSDTVNQMFTQKTANIQLRLYFDSSGNLLTEESDLKIPLKNKSSTATSETVASSKAFMPSTTAYPFNTTTRDSENYIHGICYYMTSYDRSLFPLNISIMLNSRMISSNVAYAIQFEWNLNASESPESNIATLTTSPFFFSYITEDDN
notes: also called Ad35 knob; biotin-conjugated Ad35 fiber knob domain
B2: purified recombinant Ad5 fiber knob domain (other)
chain: DKLTLWTTPAPSPNCRLNAEKDAKLTLVLTKCGSQILATVSVLAVKGSLAPISGTVQSAHLIIRFDENGVLLNNSFLDPEYWNFRNGDLTEGTAYTNAVGFMPNLSAYPKSHGKTAKSNIVSQVYLNGDKTKPVTLTITLNGTQETGDTTPSAYSMSFSWDWSGHNYINEIFATSSYTFSYIAQE
notes: also called Ad5 knob

What was measured:
[1] = molecular target: recombinant human coagulation factor IX (human) (UniProt P00740); experiment: cell-based or functional assay
recombinant human coagulation factor IX (human), sequence (P00740 47-461 limits assumed): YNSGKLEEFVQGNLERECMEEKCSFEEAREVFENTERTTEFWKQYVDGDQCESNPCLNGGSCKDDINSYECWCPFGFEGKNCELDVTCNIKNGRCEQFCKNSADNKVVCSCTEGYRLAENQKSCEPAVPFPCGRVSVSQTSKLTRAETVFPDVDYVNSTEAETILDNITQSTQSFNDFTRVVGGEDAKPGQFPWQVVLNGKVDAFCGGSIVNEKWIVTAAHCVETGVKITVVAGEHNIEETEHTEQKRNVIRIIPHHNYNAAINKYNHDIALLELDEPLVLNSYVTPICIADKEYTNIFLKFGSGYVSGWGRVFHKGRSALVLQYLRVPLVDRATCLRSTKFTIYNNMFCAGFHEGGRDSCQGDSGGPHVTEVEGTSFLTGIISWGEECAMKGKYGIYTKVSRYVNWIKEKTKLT

[2] = molecular target: T1, recombinant human coagulation factor IX (human, UniProt P00740 47-461); experiment: SPR, FIX immobilized on the sensor, knob in solution
T1 construct: also called FIX; human FIX
T1 sequence (P00740 47-461 limits assumed): as above

Molecule | reporter gene activities in HSPG-expressing CHO-K1 cells infected with FIX compared to infection without FIX [1] | transduction of primary human hepatocytes (luciferase activity) with FIX compared to without [1] | binding result [2]
Ad5/35L virus (Ad5 capsid, long Ad5 fiber shaft, Ad35 fiber knob domain) (from UniProt P11818 1-399) | > 45 fold | – | –
Ad5F* virus (long-shafted Ad5-based vector, fiber knob aa 477 Y to A, C-terminal 6-His) (from UniProt P11818 1-581) | > 45 fold | > 14 fold | –
B1 | – | – | binds
B2 | – | – | binds
